Earlier results, collected in publication PMC6757120.

Molecular target: VEGF-A165 (Homo sapiens) (UniProt P15692)
Chain of UniProt P15692 (P15692 whole entry): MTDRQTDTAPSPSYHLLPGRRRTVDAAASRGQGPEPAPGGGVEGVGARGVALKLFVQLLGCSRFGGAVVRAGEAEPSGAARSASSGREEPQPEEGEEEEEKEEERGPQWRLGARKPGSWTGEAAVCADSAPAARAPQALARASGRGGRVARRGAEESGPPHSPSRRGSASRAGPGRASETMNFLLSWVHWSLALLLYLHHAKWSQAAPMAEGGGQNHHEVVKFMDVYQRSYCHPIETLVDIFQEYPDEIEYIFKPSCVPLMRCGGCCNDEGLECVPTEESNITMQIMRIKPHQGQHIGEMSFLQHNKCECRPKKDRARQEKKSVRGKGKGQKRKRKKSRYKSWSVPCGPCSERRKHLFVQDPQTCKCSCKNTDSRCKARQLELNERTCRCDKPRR

- Kd: 3 nM
Substance: NRP1 (from UniProt O14786)
